# Test system: MS2 coat protein
# Test: apparent KD of MS2 coat protein; designed switch direction (-1 OFF switch, 1 ON switch): -1; higher = weaker reporter binding
# In short: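 Normalised cluster fluorescence was curve-fitted, and each design's median over clusters is its apparent KD. Before this, SNAP-549-labelled MS2 coat protein was titrated from 0.7 or 1.5 nM, doubling to 3 µM, over RNA switches transcribed on Illumina chips by stalled E. coli RNA polymerase. Titrations had no input, 200 uM small-molecule ligand, or an oligonucleotide input, and steps lasted 0.8–1.5 h (lowest) to 10–20 min (highest).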
# [1] = input ligand: microRNA oligo, concentration not stated
# [2] = Eterna round: R95, input ligand: microRNA oligo, concentration not stated
# [3] = Eterna round: R95, input ligand: FMN 200 uM
# [4] = Eterna round: R95, input ligand: none
Sequence,apparent KD of MS2 coat protein (input ligand: FMN 200 uM) [nM],apparent KD of MS2 coat protein (input ligand: none) [nM],apparent KD of MS2 coat protein [1] [nM],apparent KD of MS2 coat protein [2] [nM],apparent KD of MS2 coat protein [3] [nM],apparent KD of MS2 coat protein [4] [nM]
"CAGUACUGAGGAUAUACAUGAGGAUCACCCAUGUGUCUUCUAUUAGGAAACUAGUUAUGUAGAAGGCAGUACUG [Omei Ex3 Mod of Eli 4.27 v8] (Eterna round: R97, puzzle: Exclusion 3)",221,16.9,–,–,–,–
"GUAAAUCAUGUAGGAUAUGCGUGGCGAAGCUAUGCAGAAGGACAUGAGGAUCACCCAUGUGCUUCCGUCUGAGAACAGACGGAG [Mat - Exclusion NG 1 - Mod of JL - D28] (Eterna round: R96, puzzle: Exclusion NG 1)",222,244,116,–,–,–
"UAAUUGUGAGGAUAUUCGUUGUUCUCGGAGACGAGAAUAACGGAGAAGGCACAUGAGGAUCACCCAUGUUCCUU [Mat - Exclusion 4 - JL Mod - D13] (Eterna round: R97, puzzle: Exclusion 4)",98.4,18,–,–,–,–
CUUCUCGUUGUGAGGAUAUCGUUUUCGUCUCGGAUCGAGAAGGCACAUGAGGAUCACCCAUGUUUGUUGUGGUU [JR_BMOE4_Sub090] (puzzle: Brourd's mod of Exclusion 4),–,–,–,87.9,–,–
"UACAGUCAUCCUUAUUGUUACAUGAGGAUCACCCAUGUUAGUAUAAUUAAGUUAUGUAAGUUUGUUGUUCGUUUUAU [JR_STOV1_v2_Sub075] (Eterna round: R97, puzzle: Sensor, turn-off variant 1)",81.9,84.6,–,–,–,–
"AAAAAGGGAGGAUAUACAUGAGGAUCACCCAUGUAGCAGACGAAAAAGAGUCUGUAAUGUAGAAGGCCCAAAAA [65%, Moding Exclusion3-cac2, 4] (Eterna round: R96, puzzle: Exclusion 3)",50.9,17.5,13.1,–,–,–
"GAUGUUCGAGUUAGGAUAUGAAUCCAUACCGGACAUCAGAAGGAACUUGAGGAUCACCCAAGUGGGAAAGAAAU [Orzavera] (Eterna round: R97, puzzle: Brourd's mod of Exclusion 4)",26.3,23.5,–,–,–,–
"UUUUUUUUGCGAGGAUAUGCAUUUAGUUAGUUAGCAGAAGGCGCGUUUCUAUACUCCUCUUCUUACAUGAGGAUCACCCAUGUU [JR_ExcNG1_Sub033] (Eterna round: R96, puzzle: Exclusion NG 1)",69.9,35.1,34.5,–,–,–
"UUAGAUUAUUGAGGAUAUGGAUAUUUUUAUUAACCAGAAGGCAAACUCAACAUGAGGAUCACCCAUGUAUAAAGGGUAUUAGUU [JR_ExcNG1_Sub098] (Eterna round: R96, puzzle: Exclusion NG 1)",–,–,71.2,–,–,–
"GCCUUAUCCGUCAGGAUAUACAGCCGCUCCCUGUUGUAGAAGGGACAUGAGGAUCACCCAUGUACGUACCACUG [alecazam7] (Eterna round: R97, puzzle: Brourd's mod of Exclusion 4)",28.7,22.6,–,–,–,–
"CGCUGGUGAGGAUAUGGGUGUGGUUACAUGAGGAUCACCCAUGUGGAGUCGCAUGUGGGUCCAGAAGGCGCGGGUG [-25.2, -23.4 kcal, 18% A] (Eterna round: R97, puzzle: Exclusion 5)",158,215,–,–,–,–
"AAAUAGCUAGAGGAUAUCGGAUAGAAUUUAUUACGAGAAGGUUAGACAUGAGGAUCACCCAUGUUCUGUUGGGA [EX6 #22] (Eterna round: R97, puzzle: Exclusion 6)",70,33.8,–,–,–,–
"AGCCCGCAAGGAGGAUAUUAACAUGAGGAUCACCCAUGUAAUCACUAGAUAGCACGGGCGGUUCGUAAGAAGGUCUAGUGGAAU [Eternabot solution 24] (Eterna round: R96, puzzle: Exclusion NG 2)",35.4,33.1,22.3,–,–,–
CCGAAUAAGCAGGAUAUCGAAUCGGAGACGAUUCGAGAAGGGUUAACAUGAGGAUCACCCAUGUUCCUUAACGG [Mat - Exclusion 6 - Eli Mod - D79] (puzzle: Exclusion 6),–,–,–,17.3,–,–
"UACAGACAUGAGGAUCACCCAUGUUAGGAUAUGCAGAACUCUACUCACGUGGCGUUUAGCAGAAGGAAUACGGG [Eternabot (L1) Solution 68] (Eterna round: R97, puzzle: Exclusion 1)",122,74.6,–,–,–,–
"GAUUAACAUGAGGAUCACCCAUGUGAGGAUAUGGACUUGCUCACUUUCCGAUUCGAGUCUAGAAGGCGCAUCUU [1986#116] (Eterna round: R97, puzzle: Exclusion 1)",30.6,27.1,–,–,–,–
"GGGUGACAGUUAGGAUAUCUUAGCACGCCGUAGAGAGAAGGAACAUGAGGAUCACCCAUGUUGUAGUGCCUCCGGCACUGCUAG [Zaquata] (Eterna round: R96, puzzle: Exclusion NG 1)",59.2,43.5,30.1,–,–,–
"CAGCUGAAUGUGAGGAUAUUACGAGCGAUAGCUCGUGAGAAGGCACAUGAGGAUCACCCAUGUCUCAACAGCUG [BmEx4/2-B4] (Eterna round: R97, puzzle: Brourd's mod of Exclusion 4)",552,38.6,–,–,–,–
"ACAAGCUUUUAGAUUUUCAACAUGAGGAUCACCCAUGUUCGUCUUGUGCUAGUGCGAGUGCGGUGUACUCGUAUUAG [JL TOV1 3.82 sellena mod] (Eterna round: R97, puzzle: Sensor, turn-off variant 1)",18.5,18.4,–,–,–,–
"CUGUACUGAGGAUAUACAUGAGGAUCACCCAUGUUCCAAGGCUAGGAAACUAGCAAAGGUAGAAGGCAGUACAG [Mat - Exclusion 3 - Eli Mod - D67] (Eterna round: R97, puzzle: Exclusion 3)",215,17.8,–,–,–,–
GCCAGAUCAGGAUAUCUAAUAUAUCACAUGAGGAUCACCCAUGUCCAGCGAAAGCUGGAGGGAGAAGGGAUCUGGC [Mat - Exclusion 5 - Eli mod - D102] (puzzle: Exclusion 5),–,–,–,79.8,39.8,48.2
"UUGGUUGUGGUAGGAUAUCCGUUGGAAACUGUUGGAGAAGGACCACAGUCACUGGGUCUUUGUUUGGUGGAGUGGAAGAACCAU [pwkr exNG1 F6.18] (Eterna round: R96, puzzle: Exclusion NG 1)",166,324,532,–,–,–
GUGGAGUAAGGAUAUACAUGAGGAUCACCCAUGUGAGGGUAUGAGAAGGGAAUGAGAGGUAGAAGGUACGAGGA [JR_Exclu3_Sub069] (puzzle: Exclusion 3),–,–,–,106,108,186
"CCAUCGAGUGUGAGGAUAUGCUGGUCCAUAGAUCAGCAGAAGGCACAUGAGGAUCACCCAUGUGGAGACGGUGG [Mat - Exclusion 4 - JL Mod - D78] (Eterna round: R96, puzzle: Brourd's mod of Exclusion 4)",–,–,31,–,–,–
"AUUUUGUGAGGAUAUUAGUUUUAUAAUUUUAUUAGUUUAGCUGAGAAGGCACAUGAGGAUCACCCAUGUAAAUC [JR_Ex4_Sub045] (Eterna round: R97, puzzle: Exclusion 4)",42.5,22.9,–,–,–,–
"CCGGUUGGCGCAGGAUAUACAUGAGGAUCACCCAUGUUCAUGAGGAUCAUCCAUGAGUUUUUGUUGUAGAAGGGUGGCCCGGCC (Eterna round: R96, puzzle: Exclusion NG 2)",117,98.4,60.8,–,–,–
"GCAAGCUUAAUCAGUAUGAACAUGAGGAUCACCCAUGUAUAAGGUAAUUCUUUUGGGUUUUUUAUUGCUCGUCUUAU [JR_STOV1_Sub027] (Eterna round: R97, puzzle: Sensor, turn-off variant 1)",245,297,–,–,–,–
"UGCCGGGCGUGAUCGGAUGACAUGAGGAUCACCCAUGUGCCAGCACAUAAUACCGCUCGCGGUUUUUUGCUCGUCAU [Eternabot (Original) Solution 12] (Eterna round: R97, puzzle: Sensor, turn-off variant 1)",221,250,–,–,–,–
"ACCUCACUUGAGGAUCACCCAAGUCAGGAUAUACUCGUUUGCCGCACGACGCGGCAUUGUAGAAGGGACGGGUU [Arveatat] (Eterna round: R97, puzzle: Exclusion 1)",35.1,17.9,–,–,–,–
"CUGAACCCGGUAGGAUAUAUUGUGGGCAAGCAUGGAACGACAUGAGGAUCACCCAUGUAAUUUAGGUAGAAGGGCCAAAAGAUU [Excl-NG2-LRO09] (Eterna round: R96, puzzle: Exclusion NG 2)",34.6,53.9,28.9,–,–,–
